# Experimental data from patent US20070141662.
# Biological target: CISNN116 (NT1-C3-hIL21) (UniProt Q9HBE4)
# Sequence (Q9HBE4 other isoform, or with tags, fused parts or gaps): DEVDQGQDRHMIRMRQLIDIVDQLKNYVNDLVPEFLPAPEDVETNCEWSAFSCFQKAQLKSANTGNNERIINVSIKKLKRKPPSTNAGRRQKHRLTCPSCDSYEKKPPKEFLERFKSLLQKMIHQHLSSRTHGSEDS
substance,measurement,value
Caspase 3,"completion of the proteolysis reaction (Maldi analysis), 1 hour at 37° C.",Maldi analysis showed 87% completion of the reaction
